Measurements from article PMC7035337 (2020).

Molecular target: T1, DSP_linker (Homo sapiens (Human), UniProt P15924)
T1 chain: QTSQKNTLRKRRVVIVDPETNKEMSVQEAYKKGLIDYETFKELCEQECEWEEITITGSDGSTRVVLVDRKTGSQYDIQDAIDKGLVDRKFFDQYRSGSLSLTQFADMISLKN
Test: MST

- Kd: > 800 µM
B1: VIM_rod (protein)
chain 1: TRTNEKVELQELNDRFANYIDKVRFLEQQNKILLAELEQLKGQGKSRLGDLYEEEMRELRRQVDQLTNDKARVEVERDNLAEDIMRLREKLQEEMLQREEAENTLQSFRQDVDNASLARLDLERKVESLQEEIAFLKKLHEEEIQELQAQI
chain 2: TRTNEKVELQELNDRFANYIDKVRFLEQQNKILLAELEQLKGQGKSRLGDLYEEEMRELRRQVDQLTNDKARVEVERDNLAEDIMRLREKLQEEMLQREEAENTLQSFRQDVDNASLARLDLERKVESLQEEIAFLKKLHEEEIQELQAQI
